Assays:
human Claudin-6 [1] = molecular target: T1, human Claudin-6 (human, UniProt P56747 1-220); assay: FACS dose response, Claudin-6-CHO cells
T1 construct: also called CLDN6
T1 sequence: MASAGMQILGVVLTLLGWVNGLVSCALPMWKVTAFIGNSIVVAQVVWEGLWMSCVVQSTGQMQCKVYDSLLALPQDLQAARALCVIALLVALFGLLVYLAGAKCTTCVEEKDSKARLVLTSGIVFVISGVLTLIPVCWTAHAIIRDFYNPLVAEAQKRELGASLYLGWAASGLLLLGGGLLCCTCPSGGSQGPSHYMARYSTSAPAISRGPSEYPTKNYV
Experimental: (§1) Briefly, Claudin-6-CHO-K1 cells verse parental CHO-K1 cells were incubated with anti-CLDN6 antibodies for 2 hours at 4° C. Cells were fixed with 2% PFA (Alfa Aesar, cat #: J61899) for 15 minutes at 4° C. and then washed. […] Flow cytometric analyses were performed on a flow cytometry instrument (Intellicyte, IQue plus, Sartorius).

human Claudin-6 [2] = molecular target: T1, human Claudin-6; assay: FACS, NEC8 cells (endogenous CLDN6)
Experimental: (§2) Cells were fixed with 2% PFA (Alfa Aesar, catalog number: J61899) for 15 minutes at 4° C. and then washed. […] Flow cytometric analyses were performed on a flow cytometry instrument (Intellicyte, IQue plus, Sartorius).

human Claudin-4 [3] = molecular target: T2, human Claudin-4 (human, UniProt O14493 1-209); assay: FACS on Claudin-4-CHO-K1 cells, MFI
T2 construct: On transfected CHO-K1 cells, or endogenous on MCF7 cells; also called CLDN4
T2 sequence: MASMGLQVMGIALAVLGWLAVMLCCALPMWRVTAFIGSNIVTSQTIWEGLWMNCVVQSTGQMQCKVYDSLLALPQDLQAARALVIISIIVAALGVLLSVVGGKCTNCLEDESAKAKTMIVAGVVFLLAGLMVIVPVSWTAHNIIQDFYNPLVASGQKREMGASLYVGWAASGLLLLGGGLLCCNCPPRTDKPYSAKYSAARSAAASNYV
Experimental: as §1

human Claudin-6 [4] = molecular target: T1, human Claudin-6; assay: FACS, NEC8 cells (endogenous CLDN6), recombinant antibody
human Claudin-6 [5] = molecular target: T1, human Claudin-6; assay: FACS dose response, Claudin-6-HEK293 cells
human Claudin-9 [6] = molecular target: T3, human Claudin-9 (human, UniProt O95484 1-217); assay: FACS dose response, Claudin-9-HEK293 cells
T3 construct: On transfected HEK293 cells; also called CLDN9
T3 sequence: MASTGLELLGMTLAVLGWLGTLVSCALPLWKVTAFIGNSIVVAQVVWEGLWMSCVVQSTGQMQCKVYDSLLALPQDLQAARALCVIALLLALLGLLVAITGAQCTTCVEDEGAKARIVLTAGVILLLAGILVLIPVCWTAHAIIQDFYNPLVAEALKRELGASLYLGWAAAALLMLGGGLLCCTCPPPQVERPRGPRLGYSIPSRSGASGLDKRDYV
Experimental: (§3) The binding specificity of the disclosed anti-Claudin-6 antibodies were further assessed for binding to Claudin-9 by FACS. Briefly, Claudin-9-HEK293 cells (GenScript, Item #U3288DL180_4) were incubated with recombinant Claudin-6 antibodies for 2 hours at 4° C. Cells were fixed with 2% PFA (Alfa Aesar, cat #: J61899) for 15 minutes at 4° C. and then washed. […] Flow cytometric analyses were performed on a flow cytometry instrument (Intellicyte, IQue plus, Sartorius).

human Claudin-9 [7] = molecular target: T3, human Claudin-9; assay: FACS, Claudin-9-HEK293 cells, 5 µg/ml
Experimental: as §3

human Claudin-6 [8] = molecular target: T1, human Claudin-6; assay: cell-based or functional assay
human Claudin-6 [9] = molecular target: T1, human Claudin-6; assay: FACS, Claudin-6-CHO-K1 cells, 5 µg/ml
Experimental: as §1

human Claudin-6 [10] = molecular target: T1, human Claudin-6; assay: cell-based or functional assay; remark: listed apart in the source
human Claudin-6 [11] = molecular target: T1, human Claudin-6; assay: FACS dose response, Claudin-6-HEK293 cells; remark: listed apart in the source
human Claudin-4 [12] = molecular target: T2, human Claudin-4; assay: FACS on MCF7 cells, which endogenously express Claudin-3 and Claudin-4; MFI relative to the isotype control
human Claudin-6 [13] = molecular target: T1, human Claudin-6; assay: FACS, OV90 cells (endogenous CLDN6)
Experimental: as §2

human Claudin-6 [14] = molecular target: T1, human Claudin-6; assay: FACS dose response, NEC8 cells (endogenous CLDN6)
human Claudin-4 [15] = molecular target: T2, human Claudin-4; assay: FACS on Claudin-4-CHO-K1 cells, MFI relative to the isotype control
Experimental: as §1

human Claudin-6 [16] = molecular target: T1, human Claudin-6; assay: cell-based or functional assay; remark: listed apart in the source
human Claudin-6 [17] = molecular target: T1, human Claudin-6; assay: cell-based or functional assay; remark: listed apart in the source
human Claudin-3 = molecular target: T4, human Claudin-3 (human, UniProt O15551 1-220); assay: FACS, CHO-K1 cells overexpressing Claudin-3 (CHO-K1-CLDN3), serial dilution, MFI
T4 construct: On transfected CHO-K1 cells, or endogenous on MCF7 cells; also called CLDN3
T4 sequence: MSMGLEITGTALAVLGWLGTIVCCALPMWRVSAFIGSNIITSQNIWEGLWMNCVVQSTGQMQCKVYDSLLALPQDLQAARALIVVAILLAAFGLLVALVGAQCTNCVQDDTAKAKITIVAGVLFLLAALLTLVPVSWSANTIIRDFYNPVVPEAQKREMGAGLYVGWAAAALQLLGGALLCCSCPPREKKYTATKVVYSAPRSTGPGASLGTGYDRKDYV

human Claudin-6 [18] = molecular target: T1, human Claudin-6; assay: FACS dose response, NEC8 cells (endogenous CLDN6), hybridoma-purified antibody
Experimental: as §2
(§4) The anti-CLDN6 antibodies were also evaluated for their binding affinity to Claudin-6 overexpressing cell lines by FACS.

human Claudin-9 [19] = molecular target: T3, human Claudin-9; assay: FACS, Claudin-9-HEK293 cells, 10 µg/ml, hybridoma-purified antibody
human Claudin-6 [20] = molecular target: T1, human Claudin-6; assay: FACS, Claudin-6-HEK293 cells, 10 µg/ml, hybridoma-purified antibody
human Claudin-6 [21] = molecular target: T1, human Claudin-6; assay: FACS, NEC8 cells (endogenous CLDN6), 10 µg/ml, hybridoma-purified antibody
Experimental: as §2

human Claudin-6 [22] = molecular target: T1, human Claudin-6; assay: FACS dose response, Claudin-6-CHO-K1 cells, hybridoma-purified antibody
Experimental: as §4

human Claudin-6 [23] = molecular target: T1, human Claudin-6; assay: FACS dose response, Claudin-6-HEK293 cells, hybridoma-purified antibody
Experimental: as §4

B1: NR.N6.Ab1 (antibody, human IgG1, V domains shown)
VH: QVQLVQSGAEVKKPGASVKVSCKASGNTFTSYDINWVRQATGQGLEWMGWMNPNSGNTGYAQKFQGRVTMTRNTSISTAYMELSSLRSEDTAVYYCVYYNYVWGSFRFDDWGQGTLVTVSS
VL: DIQLTQSPSFLSASVGDRVTITCRASQGISSYLAWYQQKPGKAPKLLIYAASTLQSGVPSRFSGSGSGTEFTLAVSSLQPEDFATYYCQQLNSYPYTFGQGTKLEIK
notes: Human variable domains from Trianni mice; also called NR.NR6.Ab1
- EC50 (human Claudin-6 [1]): 0.97 nM
- fold MFI over isotype control (human Claudin-6 [2]): 27 fold
- binding result (human Claudin-4 [3]): no binding
- fold MFI over isotype control (human Claudin-6 [4]): 32 fold
- EC50 (human Claudin-6 [5]): 0.63 nM
- EC50 (human Claudin-9 [6]): 6.72 nM
- fold MFI over isotype control (human Claudin-9 [7]): 16 fold
- endocytosis-mediated cytotoxicity on OV90 cells, EC50 (human Claudin-6 [8]): 1.08 nM
- fold MFI over isotype control (human Claudin-6 [9]): 28 fold
- ADCC reporter assay on NEC8 cells, EC50 (human Claudin-6 [10]): 0.4 nM
- EC50 (human Claudin-6 [11]): 0.55 nM
- fold MFI over isotype control (human Claudin-4 [12]): 0.9 x
- fold MFI over isotype control (human Claudin-6 [13]): 19 fold
- EC50 (human Claudin-6 [14]): 1.39 nM
- fold MFI over isotype control (human Claudin-4 [15]): 1.1 x
- endocytosis killing (anti-hFc Fab-MMAF, CellTiter-Glo, 72 h) on NEC8 cells, EC50 (human Claudin-6 [16]): 0.14 nM
- endocytosis-mediated cytotoxicity (anti-hFc Fab-MMAF, CellTiter-Glo) on NEC8 cells, EC50 mean (St. Dev. 0.11) (human Claudin-6 [17]): 0.2 nM

B2: NR.N6.Ab6 (antibody, V domains shown)
VH: QVQLQESGPGLVKPSETLSLTCTVSGGSISSYYWSWIRQPPGKGLEWIGYIYYSGSTNYNPSLKSRVTISLDTSKNQFSLKLTSVTAADTAVYYCARGSIPVAGTSYFYYYGMDVWGQGTTVTVSS
VL: EIVMTQSPATLSLSPGERATLSCRASQSVSSSYLSWYQQKPGQAPRLLIYGASTRATGIPARFSGSGSGTDFTLTISSLQPEDFAVYYCQQDYNLPWTFGQGTKVEIK
- binding result (human Claudin-3): no binding (tested: log 1.8 (about 67 nM))
- EC50 (human Claudin-6 [18]): 5.63 nM
- fold MFI over isotype control (human Claudin-9 [19]): 47 fold
- fold MFI over isotype control (human Claudin-6 [20]): 60 fold
- fold MFI over isotype control (human Claudin-6 [21]): 23 fold
- EC50 (human Claudin-6 [22]): 3.06 nM
- EC50 (human Claudin-6 [23]): 4.11 nM

From patent publication US20250277026A1 (NOVAROCK BIOTHERAPEUTICS, published 2025)
